This note sets out measurements from US20190055312A1 (CELL MEDICA, published 2019).

Values joined by “and” are separate entries in the source; they are usually repeats but may differ in a detail not shown here. Identical values can stand only once.

Experiment [1] addresses T1, mouse PD-L1 Fc fusion (Sino Biological, China, cat. no. 50010-M03H or RnD Systems, USA, cat. no. 1019-B7-100) (Mus musculus, UniProt Q9EP73 19-238).
T1 construct: Two bought reagents were used; not shown: Fc part of the bought fusion
The experiment is described as follows: binding ELISA, mouse PD-L1 Fc fusion coated, Protein L-HRP detection. (In an ELISA, binding on a coated surface is turned into a signal by an enzyme label.)

In experiment [2] the target is T2, recombinant human (rh) PD-L1 Fc fusion (RnD Systems, USA, cat. no. 156-B7) (human, UniProt Q9NZQ7 19-239).
T2 construct: Bought reagent; also called human PD-L1 Fc fusion; not shown: Fc part of the bought fusion
Description: KinExA in solution, room temperature, PD-L1 Fc fusion titrated against constant scFv1, n-curve analysis. The method, then:
(§1) Duplicate measurements were prepared for each data point. […] These mixtures were incubated for 5 hours. […] These mixtures were incubated for 9 hours. […] All steps were carried out at room temperature. […] This voltage signal is used to calculate the KD value and activity of the scFv using the “n-curve analysis” of the KinExA® Pro software version 4.1.9 or 4.2.10 (FIG. 5) using the option “titrant as analysis concentration reference”.
A general note: A kinetic exclusion assay measures how much of one partner remains free in solution.

In experiment [3] the target is T3, rhPD-L2 Fc fusion (RnD Systems, USA, cat. no. 1224-PL) (human, UniProt Q9BQ51 20-219).
T3 construct: Bought reagent; also called human PD-L2; not shown: Fc part of the bought fusion
T3 sequence (looked up): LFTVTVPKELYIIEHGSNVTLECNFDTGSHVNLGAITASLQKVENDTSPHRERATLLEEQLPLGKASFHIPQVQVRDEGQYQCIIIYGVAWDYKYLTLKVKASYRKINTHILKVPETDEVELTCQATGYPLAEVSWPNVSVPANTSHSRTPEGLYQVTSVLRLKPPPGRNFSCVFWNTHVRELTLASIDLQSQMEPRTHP
Description: binding ELISA, rhPD-L2 Fc fusion coated, Protein L-HRP detection. Here is the method: (§2) Plates were blocked with 1% BSA and 0.5% Tween-20 in PBS, pH7.2. A serial dilution of scFvs was prepared with concentrations of 5, 1 and 0.2 mcg/mL and added to plates.

For experiment [4], the target named is T2, recombinant human (rh) PD-L1 Fc fusion …. The experiment is described as follows: competition ELISA: coated rhCD80-His, scFv titrated against constant 50 nM rhPD-L1 Fc fusion, bound PD-L1 Fc detected with anti-human IgG Fc-HRP. Here is the method:
Plates were blocked with 1% BSA and 0.05% Tween-20 in PBS, pH7.4. […] This mixture was incubated with the CD80 coated plates for 2 hours at room temperature. […] The ELISA was developed with TMB ELISA substrate solution (eBioscience, USA, cat. no. 00-4201-56).

Experiment [5] addresses T4, rhB7-H3 Fc fusion (RnD Systems, USA, cat. no. 1027-B3) (human, UniProt Q5ZPR3-2 29-245, limits assumed).
T4 construct: Bought reagent; also called human B7-H3; not shown: Fc part of the bought fusion
T4 sequence (looked up): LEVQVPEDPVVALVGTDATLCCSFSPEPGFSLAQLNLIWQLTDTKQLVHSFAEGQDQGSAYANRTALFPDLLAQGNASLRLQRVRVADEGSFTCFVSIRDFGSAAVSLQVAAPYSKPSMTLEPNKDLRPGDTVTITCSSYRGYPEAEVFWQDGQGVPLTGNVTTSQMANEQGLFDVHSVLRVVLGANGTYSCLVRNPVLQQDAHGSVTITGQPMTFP
The experiment is described as follows: binding ELISA, rhB7-H3 Fc fusion coated, Protein L-HRP detection. The method, then:
as §2

In experiment [6] the target is monkey PD-L1 Fc fusion (Sino Biological, China, cat. no. 90251-C02H) (Rhesus macacque (Macaca mulatta)) (UniProt F6PJN1). The experiment is described as follows: KinExA in solution, room temperature, monkey PD-L1 Fc fusion titrated against constant scFv1, n-curve analysis.
The target of experiment [7] is T2, recombinant human (rh) PD-L1 Fc fusion …. The experiment is described as follows: binding ELISA: coated rhPD-L1 Fc fusion, scFv1 in PBS without incubation, detected with Protein L-HRP. The method, then: (§3) After blocking with PBS, pH7.4 with, 1% BSA and 0.05% Tween-20, a series of 1:3 dilutions of 2.5 mcg/ml to 42 ng/mL serum/scFv samples was added to the ELISA plates in duplicate. […] The ELISA was developed with TMB ELISA substrate solution (eBioscience, USA, cat. no. 00-4201-56).

Experiment [8] concerns the target T5, natural form of PD-L1 expressed on the surface of ES-2 cells (human, UniProt Q9NZQ7 19-290).
T5 construct: whole, on cells; also called cell surface PD-L1; human natural form of PD-L1
Description: KinExA, ES-2 cells titrated against 50 pM scFv1, room temperature. The method, then:
as §1
These mixtures were incubated for 5 hours, centrifuged for 10 minutes at 3800×g, and supernatants were transferred to fresh tubes. […] All steps were carried out at room temperature.

For experiment [9], the target named is T2, recombinant human (rh) PD-L1 Fc fusion …. Description: binding ELISA: coated rhPD-L1 Fc fusion, scFv1 in human serum, 20 h at 37 C, detected with Protein L-HRP. Here is the method: as §3
Experiment [10] has as its target T6, rat PD-L1 Fc fusion (Sino Biological, China, cat. no. 80450-R02H) (Rattus norvegicus (Norway rat), UniProt D4AE25 19-239).
T6 construct: Bought reagent; not shown: Fc part (and any linker) of the bought Sino Biological 80450-R02H fusion
Description: binding ELISA: coated rat PD-L1 Fc fusion, detected with Protein L-HRP. The method, then:
Plates were blocked with 1% BSA and 0.5% Tween-20 in PBS, pH7.2. A serial dilution of scFvs was prepared with concentrations of 1 mcg/mL, 333 ng/mL and 111 ng/mL and added to plates. […] Development was with TMB ELISA substrate solution (eBioscience, USA, cat. no. 00-4201-56).

Experiment [11] concerns the target T2, recombinant human (rh) PD-L1 Fc fusion …. Description: binding ELISA: coated rhPD-L1 Fc fusion, scFv1 in human serum, 0 h at 37 C, detected with Protein L-HRP. The method, then: as §3
Experiment [12] has the same target. Description: competition ELISA: coated rhPD-L1 Fc fusion, scFv titrated, bound biotinylated PD-1 Fc fusion (15 ng/mL) detected with streptavidin-HRP. Here is the method: Plates were blocked with 1% BSA and 0.05% Tween-20 in PBS, pH7.2. A serial dilution of scFvs was prepared, with eleven 1:3 dilutions starting at 1 mcg/mL, and added to plates. […] Background level was determined in the absence of PD-1. The ELISA was developed with TMB ELISA substrate solution (eBioscience, USA, cat. no. 00-4201-56).

Experiment [13] deals with monkey PD-L1 Fc fusion (Sino Biological, China, cat. no. 90251-C02H) (Rhesus macacque (Macaca mulatta)) (UniProt F6PJN1). Description: ratio of KinExA KD values (human PD-L1 Fc fusion as reference).
Experiment [14] deals with T2, recombinant human (rh) PD-L1 Fc fusion …. The experiment is described as follows: binding ELISA: coated rhPD-L1 Fc fusion, scFv1 in human serum, 4 h at 37 C, detected with Protein L-HRP. Here is the method:
as §3

In experiment [15] the target is PD-L1 expressing CHO cells (Promega, CS187103) (human, UniProt Q9NZQ7 19-290). The experiment is described as follows: cell-based or functional assay.
Experiment [16] has as its target T2, recombinant human (rh) PD-L1 Fc fusion …. Description: competition ELISA, rhPD-L1 Fc fusion coated, displacement of biotinylated PD-1 Fc fusion. Here is the method: Plates were blocked with 1% BSA and 0.05% Tween-20 in PBS, pH7.4. A serial dilution of IgGs was prepared, with eleven 1:3 dilutions starting at 1 mcg/mL, and added to plates. […] The ELISA was developed with TMB ELISA substrate solution (eBioscience, USA, cat. no. 00-4201-56).

Experiment [17] has as its target T7, human PD-L1-His (BioVision, USA, cat. no. 7429) (human, UniProt Q9NZQ7 19-238, limits assumed).
T7 construct: Bought reagent without Fc tag, chosen to avoid avidity; also called His tagged PD-L1; not shown: His tag
Description: ratio of KinExA KD values (scFv1 on PD-L1 Fc fusion as reference).

The target of experiment [18] is T7, human PD-L1-His (BioVision, USA, cat. …). The experiment is described as follows: KinExA in solution, human PD-L1-His titrated against constant IgG, n-curve analysis. The method, then: All steps were carried out at room temperature. […] This voltage signal is used to calculate the KD value and activity of the scFv using the “n-curve analysis” of the KinExA® Pro software version 4.1.9 or 4.2.10 (FIG. 5) using the option “titrant as analysis concentration reference”.
These mixtures were incubated for 5 hours.

T2 sequence (Q9NZQ7 19-239 limits assumed): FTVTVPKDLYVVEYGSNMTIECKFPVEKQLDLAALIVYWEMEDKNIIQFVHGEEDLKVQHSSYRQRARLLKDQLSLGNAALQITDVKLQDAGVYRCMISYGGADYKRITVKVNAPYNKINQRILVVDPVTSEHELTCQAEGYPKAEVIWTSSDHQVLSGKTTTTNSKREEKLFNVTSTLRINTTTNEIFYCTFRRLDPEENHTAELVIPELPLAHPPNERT
Chain of PD-L1 expressing CHO cells (Promega, CS187103) (Q9NZQ7 19-290): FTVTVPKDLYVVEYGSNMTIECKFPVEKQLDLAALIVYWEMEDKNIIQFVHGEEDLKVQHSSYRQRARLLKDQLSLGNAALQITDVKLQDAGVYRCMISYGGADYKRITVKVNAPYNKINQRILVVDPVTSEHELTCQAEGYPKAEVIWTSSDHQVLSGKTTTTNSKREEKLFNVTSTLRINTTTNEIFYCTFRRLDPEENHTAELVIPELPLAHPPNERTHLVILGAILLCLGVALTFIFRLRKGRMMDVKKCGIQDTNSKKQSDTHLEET
T7 sequence (Q9NZQ7 19-238 limits assumed): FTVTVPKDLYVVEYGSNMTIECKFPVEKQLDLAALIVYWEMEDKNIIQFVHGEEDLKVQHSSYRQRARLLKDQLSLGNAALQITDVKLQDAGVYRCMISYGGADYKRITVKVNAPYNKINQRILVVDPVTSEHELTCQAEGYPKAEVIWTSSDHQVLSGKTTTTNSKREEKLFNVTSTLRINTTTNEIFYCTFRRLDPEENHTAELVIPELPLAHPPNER
T1 sequence (Q9EP73 19-238 limits assumed, stated change not applied): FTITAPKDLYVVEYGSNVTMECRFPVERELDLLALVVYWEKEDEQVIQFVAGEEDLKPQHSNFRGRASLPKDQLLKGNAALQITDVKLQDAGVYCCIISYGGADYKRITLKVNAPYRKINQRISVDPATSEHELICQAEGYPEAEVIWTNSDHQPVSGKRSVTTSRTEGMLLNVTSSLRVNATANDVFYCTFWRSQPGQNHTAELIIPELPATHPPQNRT
T6 sequence (D4AE25 entry or part of it R02H R02H limits assumed): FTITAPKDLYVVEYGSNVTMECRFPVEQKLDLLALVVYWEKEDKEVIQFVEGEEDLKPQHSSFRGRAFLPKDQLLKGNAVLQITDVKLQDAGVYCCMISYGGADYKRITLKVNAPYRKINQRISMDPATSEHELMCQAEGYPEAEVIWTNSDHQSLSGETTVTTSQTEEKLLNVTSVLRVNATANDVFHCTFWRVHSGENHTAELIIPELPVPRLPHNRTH
T5 sequence (Q9NZQ7 19-290): as the sequence (Q9NZQ7 19-290) above

B1: scFv1 (scFv)
scFv: EIVMTQSPSTLSASVGDRVIITCQASEDIYSLLAWYQQKPGKAPKLLIYDASDLASGVPSRFSGSGSGAEFTLTISSLQPDDFATYYCQGNYGSSSSSSYGAVFGQGTKLTVLGGGGGSGGGGSGGGGSGGGGSEVQLVESGGGLVQPGGSLRLSCTVSGIDLSSYTMGWVRQAPGKGLEWVGIISSGGRTYYASWAKGRFTISRDTSKNTVYLQMNSLRAEDTAVYYCARGRYTGYPYYFALWGQGTLVTVSS
notes: also called E. coli cell expressed scFv1
For the molecule B1, the binding result in experiment [1] was “no binding (tested: 5 mcg/mL)”; in [3], “no binding (tested: 5 mcg/mL)”; in experiment [5], “no binding (tested: 5 mcg/mL)”; in [10] it was “no binding”. The Kd (in general, the equilibrium constant for the complex coming apart) came out at 8.8 pM in [2], 3.3 pM in experiment [6] and 0.0128 nM in experiment [8]. Moreover, the “IC50 (read off the curve)” value in [4] was 10 to 20 nM; in [12], roughly 1 nM. Besides, the “EC50 (read off the curve)” value in experiment [7], in [9], in experiment [11] and in experiment [14] was roughly 7 ng/mL each time. Moreover, in experiment [13], the fold tighter affinity than to human PD-L1 was found to be 2.7 fold. The “IC50, PD-1/PD-L1 blockade assay (luciferase, PD-L1 CHO cells and PD-1 Jurkat cells)” value in [15] was 750 pM and 874 pM.

B2: CHO cell expressed scFv1 (scFv)
scFv: B1 scFv
Regarding B2, the “IC50, PD-1/PD-L1 blockade assay (luciferase, PD-L1 CHO cells and PD-1 Jurkat cells)” value in [15] was 602 pM.

B3: IgG_4 (antibody, V domains shown)
VH: EVQLVESGGGVVRPGGSLRLSCAASGFTFDDYGMTWVRQAPGRGLEWVSGIHWHGKRTGYADSVKGRFTISRDNAKKSLYLQMNSLKGEDTALYHCVRGGMSTGDWFDPWGQGTLVIVSS
VL: DIQMTQSPSSLSASLGDRVTITCRASQSINSYLNWYQQKPGKAPKLLIYVASSLQSGVPSRFSGSGSGTEFTLTISNLQPEDFATYYCQQSYSTPPITFGQGTRLEIKR
notes: Produced in CHO K1 cells; also called H2M8314N as described in WO2015/112805A1
Turning to B3, the IC50 – broadly, the concentration that inhibits the measured activity by half – in experiment [16] amounted to 0.606 nM.

B4: IgG_1 (antibody, V domains shown)
VH: EVQLVESGGGLVQPGGSLRLSCTVSGIDLSSYTMGWVRQAPGKGLEWVGIISSGGRTYYASWAKGRFTISRDTSKNTVYLQMNSLRAEDTAVYYCARGRYTGYPYYFALWGQGTLVTVSS
VL: EIVMTQSPSTLSASVGDRVIITCQASEDIYSLLAWYQQKPGKAPKLLIYDASDLASGVPSRFSGSGSGAEFTLTISSLQPDDFATYYCQGNYGSSSSSSYGAVFGQGTKLEIKR
notes: Produced in CHO K1 cells; also called scFv1 converted into IgG format
For the molecule B4, the “fold tighter affinity than scFv1 to PD-L1” value in experiment [17] was roughly 3 fold. Besides, the Kd in experiment [18] was 2.77 pM. Besides, the IC50 in experiment [16] was determined as 0.327 nM.
